Measured values published in US20230192818A1 (TWIST BIOSCIENCE, published 2023).
Like-named read-outs stand apart in the source and are kept apart here.

B1: 15-3 (Fc fusion)
chain: EVQLVESGGGLVQPGGSLRLSCAASGFTFSPSWMGWFRQAPGKEREFVATINEYGGRNYADSVKGRFTISADNSKNTAYLQMNSLKPEDTAVYYCARVDRDFDYWGQGTLVTVSS
notes: also called Antibody 15-3; Antibody 15 parent
B2: 3-31 (Fc fusion)
chain: EVQLVESGGGLVQPGGSLRLSCAASGSTFSINAMGWFRQAPGKEREFVAGITSSGGYTNYADSVKGRFTISADNSKNTAYLQMNSLKPEDTAVYYCAADGVPEYSDYASGPVWGQGTLVTVSS
notes: also called Antibody 3-31

Experiments:
SARS-CoV-2 S1 (Acro) [1] = biological target: T1, SARS-CoV-2 S1 (Acro) (SARS-CoV-2, UniProt P0DTC2 16-685); experiment: SPR (Carterra)
T1 construct: also called Acro S1

SARS-CoV-2 S1 (Acro) [2] = biological target: T1, SARS-CoV-2 S1 (Acro); experiment: SPR (Carterra); remark: listed apart in the source

| Binder | Kd (SARS-CoV-2 S1 (Acro) [1]) [nM] | Kd (SARS-CoV-2 S1 (Acro) [2]) [nM] |
| --- | --- | --- |
| B1 | 31.5 |  |
| B2 | 21 | 21 |
